According to CN111393528A (UNIV CHINA PHARMA, dated 2020):

Target: T1, FRα重组蛋白 (叶酸受体α, folate receptor α recombinant protein) (UniProt P15328 25-233, limits assumed)
T1 construct: Recombinant protein used for panning and ELISA (coated) and, after biotinylation (biotin:protein 20:1), on streptavidin sensors for BLI
Assay: BLI (ForteBio Octet), biotinylated FRα on streptavidin sensor, scFv in solution

T1 sequence (P15328 25-233 limits assumed): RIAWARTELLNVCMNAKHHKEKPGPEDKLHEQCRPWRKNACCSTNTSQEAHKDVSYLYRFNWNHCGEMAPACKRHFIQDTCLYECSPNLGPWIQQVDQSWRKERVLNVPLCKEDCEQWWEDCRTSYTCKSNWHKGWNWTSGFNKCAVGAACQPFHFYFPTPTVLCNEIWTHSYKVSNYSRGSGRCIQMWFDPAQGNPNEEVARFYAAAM

- Kd: 41.3 nM
- koff: 0.00127 s⁻¹
- kon: 30900 M⁻¹ s⁻¹
B1: FR ScFv (靶向叶酸受体α的单链抗体) (scFv)
scFv: QAQLLESGGGLVQPGGSLRLSCAASGFTFSSYAMSWVRQAPGKGLEWVSAISGSGGSTYYADSVEGRFTISRDNSKNTLYLQMNSLRAEDTAVYYCARRAVGRGWRFWGQGTMVTVSSGGGGSGGGGSGGGGSDIVLTQSPSASGTPGQRVTISCSGSSSNIGSNYVYWYQQLPGTAPKLLIYRNNQRPSGVSDRFSGSKSGTSASLAISGLRSEDEADYYCAAWDDSLSARVFGGGTKVDIKR
notes: Soluble scFv expressed in E. coli BL21 from pET22b (BamH I/Hind III), purified on a nickel column; about 28.32 kDa; Vector-derived residues at the N-terminus (pelB leader, cloning site) are not described; also called 叶酸受体α单链抗体; FRα单链抗体; not shown: C-terminal His tag from the pET22b vector (fused downstream of the gene)
